Data as given in US20230056252A1 (Gilead, published 2023).
Changes are numbered by the printed parent chain.

B1: mSP34 Fab-HF (Fab, V domains shown)
VH: EVKLLESGGGLVQPKGSLKLSCAASGFTFNTYAMNWVRQAPGKGLEWVARIRSKYNNYATYYADSVKDRFTISRDDSQSILYLQMNNLKTEDTAMYYCVRHGNFGNSYVSWFAYWGQGTLVTVSA
VL: QAVVTQESALTTSPGETVTLTCRSSTGAVTTSNYANWVQEKPDHLFTGLIGGTNKRAPGVPARFSGSLIGDKAALTITGAQTEDEAIYFCALWYSNLWVFGGGTKLTVLG
notes: also called mSP34 chimeric Fab; mSP34 human chimeric Fab
B2: huSP34.2.1 Fab-HF (Fab, V domains shown)
VH: EVQLVESGGGLVQPGGSLRLSCAASGFTFSTYAMNWVRQAPGKGLEWVGRIRSKYNNYATYYAASVKGRFTISRDDSKNSLYLQMNSLKTEDTAMYYCVRHGNFGNSYVSWFAVWGQGTLVTVSS
VL: QAVVTQEPSLTVSPGGTVTLTCRSSTGAVTTSNYANWVQQKPGQAPRGLIGGTNKRAPWTPARFSGSLIGDKAALTLSGAQPEDEAEYYCALWYSNLWVFGGGTKLTVL
notes: also called HC2+LC1
B3: huSP34.8.5 Fab-HF (Fab, V domains shown)
VH: B2 VH with T31D, I51T, M95V, N106H
VL: B2 VL with R23G, S32G, N33H, N54S, K55N, I69L, D71G, N96A, L97R
notes: also called HC8+LC5
B4: huSP34.2.5 Fab-HF (Fab, V domains shown)
VH: B2 VH
VL: B2 VL with R23G, S32G, N33H, N54S, K55N, I69L, D71G, N96A, L97R
notes: also called HC2+LC5
B5: huSP34.8.4 Fab-HF (Fab, V domains shown)
VH: B2 VH with T31D, I51T, M95V, N106H
VL: B2 VL with R23G, N33H, N54S, I69L, D71G, N96A
notes: also called HC8+LC4
B6: huSP34.5.1 Fab-HF (Fab, V domains shown)
VH: B2 VH with A64D, D76N, S80T, K89R, T90A, M95V, N106H
VL: B2 VL
notes: also called HC5+LC1
B7: huSP34.9.1 Fab-HF (Fab, V domains shown)
VH: B2 VH with T31D, I51T, N57S, M95V
VL: B2 VL
notes: also called HC9+LC1
B8: huSP34.3.6 Fab-HF (Fab, V domains shown)
VH: B2 VH with S30N, A64D, K89R, M95V, N106H, V114Y
VL: QAVVTQPPSLTVSPGGTVTLTCGSSTGAVTTGHYANWVQQKPGQAPRGLIGGTSNRAPGVPARFSGSLSGGKAALTISGAQPEDEAEYYCALWYSARWVFGGGTKLTVL
notes: also called HC3+LC6
B9: huSP34.4.6 Fab-HF (Fab, V domains shown)
VH: B2 VH with K89R, M95V, N106H
VL: B8 VL
notes: also called HC4+LC6
B10: huSP34.8.2 Fab-HF (Fab, V domains shown)
VH: B2 VH with T31D, I51T, M95V, N106H
VL: B2 VL with R23G, N54S, K55N, I69L, D71G
notes: also called HC8+LC2
B11: huSP34.6.4 Fab-HF (Fab, V domains shown)
VH: B2 VH with A64D, D76N, S80T, K89R, T90A
VL: B2 VL with R23G, N33H, N54S, I69L, D71G, N96A
notes: also called HC6+LC4
B12: huSP34.3.2 Fab-HF (Fab, V domains shown)
VH: B2 VH with S30N, A64D, K89R, M95V, N106H, V114Y
VL: B2 VL with R23G, N54S, K55N, I69L, D71G
notes: also called HC3+LC2
B13: huSP34.3.1 Fab-HF (Fab, V domains shown)
VH: B2 VH with S30N, A64D, K89R, M95V, N106H, V114Y
VL: B2 VL
notes: also called HC3+LC1
B14: huSP34.6.5 Fab-HF (Fab, V domains shown)
VH: B2 VH with A64D, D76N, S80T, K89R, T90A
VL: B8 VL with P7E, G59W, V60T, S69L, I77L
notes: also called HC6+LC5
B15: huSP34.4.1 Fab-HF (Fab, V domains shown)
VH: B2 VH with K89R, M95V, N106H
VL: B2 VL
notes: also called HC4+LC1
B16: huSP34.3.5 Fab-HF (Fab, V domains shown)
VH: B2 VH with S30N, A64D, K89R, M95V, N106H, V114Y
VL: B8 VL with P7E, G59W, V60T, S69L, I77L
notes: also called HC3+LC5
B17: huSP34.7.4 Fab-HF (Fab, V domains shown)
VH: B2 VH with T31D, I51T, M95V
VL: B2 VL with R23G, N33H, N54S, I69L, D71G, N96A
notes: also called HC7+LC4
B18: huSP34.5.5 Fab-HF (Fab, V domains shown)
VH: B2 VH with A64D, D76N, S80T, K89R, T90A, M95V, N106H
VL: B8 VL with P7E, G59W, V60T, S69L, I77L
notes: also called HC5+LC5
B19: huSP34.6.2 Fab-HF (Fab, V domains shown)
VH: B2 VH with A64D, D76N, S80T, K89R, T90A
VL: B2 VL with R23G, N54S, K55N, I69L, D71G
notes: also called HC6+LC2
B20: huSP34.5.2 Fab-HF (Fab, V domains shown)
VH: B2 VH with A64D, D76N, S80T, K89R, T90A, M95V, N106H
VL: B2 VL with R23G, N54S, K55N, I69L, D71G
notes: also called HC5+LC2
B21: huSP34.4.2 Fab-HF (Fab, V domains shown)
VH: B2 VH with K89R, M95V, N106H
VL: B2 VL with R23G, N54S, K55N, I69L, D71G
notes: also called HC4+LC2
B22: huSP34.8.1 Fab-HF (Fab, V domains shown)
VH: B2 VH with T31D, I51T, M95V, N106H
VL: B2 VL
notes: also called HC8+LC1
B23: huSP34.7.1 Fab-HF (Fab, V domains shown)
VH: B2 VH with T31D, I51T, M95V
VL: B2 VL
notes: also called HC7+LC1
B24: huSP34.4.5 Fab-HF (Fab, V domains shown)
VH: B2 VH with K89R, M95V, N106H
VL: B8 VL with P7E, G59W, V60T, S69L, I77L
notes: also called HC4+LC5
B25: huSP34.4.4 Fab-HF (Fab, V domains shown)
VH: B2 VH with K89R, M95V, N106H
VL: B2 VL with R23G, N33H, N54S, I69L, D71G, N96A
notes: also called HC4+LC4
B26: huSP34.2.4 Fab-HF (Fab, V domains shown)
VH: B2 VH
VL: B2 VL with R23G, N33H, N54S, I69L, D71G, N96A
notes: also called HC2+LC4
B27: huSP34.6.1 Fab-HF (Fab, V domains shown)
VH: B2 VH with A64D, D76N, S80T, K89R, T90A
VL: B2 VL
notes: also called HC6+LC1
B28: huSP34.8.6 Fab-HF (Fab, V domains shown)
VH: B2 VH with T31D, I51T, M95V, N106H
VL: B8 VL
notes: also called HC8+LC6
B29: huSP34.9.2 Fab-HF (Fab, V domains shown)
VH: B2 VH with T31D, I51T, N57S, M95V
VL: B2 VL with R23G, N54S, K55N, I69L, D71G
notes: also called HC9+LC2
B30: huSP34.2.6 Fab-HF (Fab, V domains shown)
VH: B2 VH
VL: B8 VL
notes: also called HC2+LC6
B31: huSP34.7.5 Fab-HF (Fab, V domains shown)
VH: B2 VH with T31D, I51T, M95V
VL: B8 VL with P7E, G59W, V60T, S69L, I77L
notes: also called HC7+LC5
B32: huSP34.3.4 Fab-HF (Fab, V domains shown)
VH: B2 VH with S30N, A64D, K89R, M95V, N106H, V114Y
VL: B2 VL with R23G, N33H, N54S, I69L, D71G, N96A
notes: also called HC3+LC4
B33: huSP34.5.4 Fab-HF (Fab, V domains shown)
VH: B2 VH with A64D, D76N, S80T, K89R, T90A, M95V, N106H
VL: B2 VL with R23G, N33H, N54S, I69L, D71G, N96A
notes: also called HC5+LC4
B34: huSP34.2.2 Fab-HF (Fab, V domains shown)
VH: B2 VH
VL: B2 VL with R23G, N54S, K55N, I69L, D71G
notes: also called HC2+LC2
B35: huSP34.7.2 Fab-HF (Fab, V domains shown)
VH: B2 VH with T31D, I51T, M95V
VL: B2 VL with R23G, N54S, K55N, I69L, D71G
notes: also called HC7+LC2
B36: huSP34.9.4 Fab-HF (Fab, V domains shown)
VH: B2 VH with T31D, I51T, N57S, M95V
VL: B2 VL with R23G, N33H, N54S, I69L, D71G, N96A
notes: also called HC9+LC4

What follows are binders tested against T1, biotinylated CD3 epsilon:delta heterodimer protein (Amsbio AMS.CDD-H52WO) (Homo sapiens (Human), UniProt P07766 23-126; P04234 22-105) (assay: BLI (Octet), CD3 on SA sensor, Fab analyte;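 further: biolayer interferometry with biotinylated CD3 epsilon:delta captured on streptavidin sensors, Fab analyte at several concentrations up to 300 nM, 100 s association then 300 s dissociation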).
T1 construct: also called CD3 heterodimer
Procedure: The CD3 binding kinetics of the purified huSP34 Fabs were determined using OctetRed384 (Pall ForteBio, CA) biolayer interferometry (BLI). […] Streptavidin (SA) coated biosensors tips (Pall ForteBio, CA) were used to capture biotinylated CD3 epsilon: delta heterodimer and typical immobilization levels captured on the SA sensors were 1 nm which approximately translates to 300 ng/ml of captured protein. For kinetic measurements biosensors were first pre-wetted with assay buffer for 10 minutes to remove protective sucrose coating followed by the recommended regeneration conditions for standardization of the biosensor surface for the experiment. In order to load the biosensors with antigen, 300 ng/ml of biotinylated CD3 epsilon: delta heterodimer protein (Amsbio AMS.CDD-H52WO) was immobilized on the SA sensor for 900 seconds. The CD3 loaded biosensors were then blocked with 20 ug/ml biocytin (sigma) for 200 seconds and then dipped into assay buffer containing wells for 200 seconds to remove any non-specific protein or unbound CD3 heterodimer.
CD3 loaded and biocytin blocked biosensors were then transferred into fresh assay buffer for 200 seconds to collect a baseline read. Kinetic measurements for anti-CD3 Fab and bispecific antibody binding were performed by dipping the CD3-coated biosensors into wells containing multiple concentrations of Fab or Ab (0-300 nM) for 100 seconds followed by a 300 second dissociation time by transferring the biosensors into assay buffer containing wells. The CD3 loaded sensors were then regenerated for the next kinetic measurement. Biosensors were generated by removing bound Fabs or Ab from immobilized CD3 on SA biosensors. Regeneration conditions used consisted of 3 cycles of 5 seconds of dipping the biosensors in Regeneration Buffer (10 mM Glycine HCl pH 1.5) followed by Assay Buffer (10 mM sodium phosphate pH 7.4, 140 mM Sodium Chloride, 0.005% Tween20 with 0.2% BSA).
Work on B1 yielded a Kd of 0.0096 µM, a koff of 0.0025 s⁻¹ and a kon of 262000 M⁻¹ s⁻¹. With B2 the Kd was 0.0246 µM, the koff was 0.00596 s⁻¹ and the kon was 246000 M⁻¹ s⁻¹. B3 gave a Kd of 0.234 µM, a koff of 0.219 s⁻¹ and a kon of 958000 M⁻¹ s⁻¹. Work on B4 yielded a Kd of 0.162 µM, a koff of 0.0408 s⁻¹ and a kon of 251000 M⁻¹ s⁻¹. With B5 the Kd was 0.305 µM, the koff was 0.163 s⁻¹ and the kon was 561000 M⁻¹ s⁻¹. With B6 the Kd was 0.123 µM, the koff was 0.0365 s⁻¹ and the kon was 311000 M⁻¹ s⁻¹. B7 gave a Kd of 0.417 µM, a koff of 0.0779 s⁻¹ and a kon of 187000 M⁻¹ s⁻¹. For B8, the Kd was 0.0189 µM, the koff was 0.00482 s⁻¹ and the kon was 266000 M⁻¹ s⁻¹. Work on B9 yielded a Kd of 0.0227 µM, a koff of 0.0101 s⁻¹ and a kon of 451000 M⁻¹ s⁻¹. In the case of B10, the Kd is reported as 3.44 µM, the koff is reported as 0.0982 s⁻¹ and the kon is reported as 172000 M⁻¹ s⁻¹. Work on B11 yielded a Kd of 0.57 µM, a koff of 0.202 s⁻¹ and a kon of 359000 M⁻¹ s⁻¹. Work on B12 yielded a Kd of 0.0254 µM, a koff of 0.00952 s⁻¹ and a kon of 381000 M⁻¹ s⁻¹. For B13, the Kd was 0.0147 µM, the koff was 0.00366 s⁻¹ and the kon was 252000 M⁻¹ s⁻¹. Work on B14 yielded a Kd of 0.353 µM, a koff of 0.0963 s⁻¹ and a kon of 273000 M⁻¹ s⁻¹. B15 showed a Kd of 0.0198 µM, a koff of 0.00723 s⁻¹ and a kon of 396000 M⁻¹ s⁻¹. In the case of B16, the Kd is reported as 0.0685 µM, the koff is reported as 0.0177 s⁻¹ and the kon is reported as 260000 M⁻¹ s⁻¹. B17 gave a Kd of 4.18 µM, a koff of 0.424 s⁻¹ and a kon of 265000 M⁻¹ s⁻¹. B18 gave a Kd of 0.666 µM, a koff of 0.185 s⁻¹ and a kon of 277000 M⁻¹ s⁻¹. For B19, the Kd was 0.351 µM, the koff was 0.0499 s⁻¹ and the kon was 144000 M⁻¹ s⁻¹. In the case of B20, the Kd is reported as 1.2 µM, the koff is reported as 0.109 s⁻¹ and the kon is reported as 90800 M⁻¹ s⁻¹. B21 showed a Kd of 0.0452 µM, a koff of 0.0144 s⁻¹ and a kon of 321000 M⁻¹ s⁻¹. With B22 the Kd was 0.443 µM, the koff was 0.0823 s⁻¹ and the kon was 186000 M⁻¹ s⁻¹. Binder B23 has a Kd of 0.372 µM, a koff of 0.0855 s⁻¹ and a kon of 235000 M⁻¹ s⁻¹. For B24, the Kd was 0.211 µM, the koff was 0.0506 s⁻¹ and the kon was 241000 M⁻¹ s⁻¹. For B25, the Kd was 0.159 µM, the koff was 0.0436 s⁻¹ and the kon was 274000 M⁻¹ s⁻¹. B26 was tested, and the Kd was 0.0994 µM, the koff was 0.0335 s⁻¹ and the kon was 398000 M⁻¹ s⁻¹. B27 was tested, and the Kd was 0.0539 µM, the koff was 0.0199 s⁻¹ and the kon was 478000 M⁻¹ s⁻¹. B28 was tested, and the Kd was 0.375 µM, the koff was 0.138 s⁻¹ and the kon was 367000 M⁻¹ s⁻¹. With B29 the Kd was 0.761 µM, the koff was 0.145 s⁻¹ and the kon was 192000 M⁻¹ s⁻¹. B30 gave a Kd of 0.0306 µM, a koff of 0.0107 s⁻¹ and a kon of 351000 M⁻¹ s⁻¹. In the case of B31, the Kd is reported as 1.46 µM, the koff is reported as 0.848 s⁻¹ and the kon is reported as 307000 M⁻¹ s⁻¹. With B32 the Kd was 0.0858 µM, the koff was 0.0246 s⁻¹ and the kon was 287000 M⁻¹ s⁻¹. Binder B33 has a Kd of 0.497 µM, a koff of 0.213 s⁻¹ and a kon of 429000 M⁻¹ s⁻¹. B34 gave a Kd of 0.0264 µM, a koff of 0.0141 s⁻¹ and a kon of 609000 M⁻¹ s⁻¹. With B35 the Kd was 0.498 µM, the koff was 0.155 s⁻¹ and the kon was 318000 M⁻¹ s⁻¹. B36 was tested, and the Kd was 6.12 µM, the koff was 0.25 s⁻¹ and the kon was 40900 M⁻¹ s⁻¹.
